Laboratory results from publication PMC4294129 (Drug Design, Development and Therapy, 2015).

Columns and labels:
human platelets = assay: Collagen I-induced platelet aggregation in platelet rich plasma; format: cell-based; conditions: 10 μM, 2 μg/mL collagen I, saline 85%±19%, mean ± SD, four donors
GST-tagged α2A domain = GST-tagged α2A domain (UniProt P17301); assay: ELISA
Sequence of UniProt P17301 (P17301 30-1181): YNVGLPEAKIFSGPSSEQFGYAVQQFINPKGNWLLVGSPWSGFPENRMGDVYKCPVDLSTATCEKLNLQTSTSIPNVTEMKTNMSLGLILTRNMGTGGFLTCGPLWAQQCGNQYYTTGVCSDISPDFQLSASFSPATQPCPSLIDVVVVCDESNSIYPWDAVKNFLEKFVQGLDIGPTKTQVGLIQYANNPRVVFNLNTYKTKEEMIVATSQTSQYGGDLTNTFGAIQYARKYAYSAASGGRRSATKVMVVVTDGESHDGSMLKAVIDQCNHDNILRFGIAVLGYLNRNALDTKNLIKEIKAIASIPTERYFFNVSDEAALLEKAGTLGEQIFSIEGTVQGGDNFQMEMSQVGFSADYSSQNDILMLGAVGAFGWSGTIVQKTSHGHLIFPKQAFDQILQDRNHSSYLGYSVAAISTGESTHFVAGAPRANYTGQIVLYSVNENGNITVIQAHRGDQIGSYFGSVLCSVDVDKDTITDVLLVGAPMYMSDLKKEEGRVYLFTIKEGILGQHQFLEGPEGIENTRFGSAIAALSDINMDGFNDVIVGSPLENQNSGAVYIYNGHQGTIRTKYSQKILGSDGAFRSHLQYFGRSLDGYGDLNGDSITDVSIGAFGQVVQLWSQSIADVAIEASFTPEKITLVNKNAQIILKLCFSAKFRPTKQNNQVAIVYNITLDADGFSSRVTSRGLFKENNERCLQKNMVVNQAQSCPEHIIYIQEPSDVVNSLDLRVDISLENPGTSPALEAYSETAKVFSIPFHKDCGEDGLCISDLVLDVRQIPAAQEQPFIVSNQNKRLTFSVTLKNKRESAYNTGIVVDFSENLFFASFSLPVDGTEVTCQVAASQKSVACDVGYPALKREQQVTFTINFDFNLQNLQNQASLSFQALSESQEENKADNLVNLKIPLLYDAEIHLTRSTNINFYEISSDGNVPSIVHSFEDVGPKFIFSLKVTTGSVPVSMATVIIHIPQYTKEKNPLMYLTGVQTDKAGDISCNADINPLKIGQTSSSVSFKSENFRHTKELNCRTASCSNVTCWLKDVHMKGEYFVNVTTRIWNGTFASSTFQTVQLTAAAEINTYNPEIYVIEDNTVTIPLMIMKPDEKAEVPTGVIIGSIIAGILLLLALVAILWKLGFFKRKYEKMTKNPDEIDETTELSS

Compound	platelet aggregation, collagen-induced, in PRP (human platelets)	percent inhibition of GST-α2A binding to collagen I (GST-tagged α2A domain)
CC(=O)Oc1cc2c(s1)CCN(C(C(=O)C1CC1)c1ccccc1F)C2 (stereo not drawn) [prasugrel]	34%±18%	–
Vipegitide (peptide)	–	30%
Vipegitide-PEG2 (peptide)	–	30%
